# In paper PMC3124082:
# Molecular target: Putative NADPH-quinone reductase
# Assay: SAXS
substance,measurement,value
Putative NADPH-quinone reductase (natural protein),fraction of dimer in the oligomer mixture,47%
same,fraction of tetramer in the oligomer mixture,53%
